Assays:
BioPure recombinant Aβ42 [1] = target: T1, BioPure recombinant Aβ42 (UniProt P05067 672-713); assay: Aβ42 coupled to AminoLink resin, mouse whole brain synaptosome extract, western blot
T1 construct: domain: Aβ(1-42); Recombinant peptide from AmideBio, coupled to AminoLink resin or to SPR chips by EDC-NHS; For treating neurons the peptide came from R Peptide or AmideBio; also called Aβ(1-42); amyloid β

BioPure recombinant Aβ42 [2] = target: T1, BioPure recombinant Aβ42; assay: pull-down of whole brain synaptosome proteins on Aβ42 coupled to AminoLink resin, western blot [A]

T1 sequence (P05067 672-713 limits assumed): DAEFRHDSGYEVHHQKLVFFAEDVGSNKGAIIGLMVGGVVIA

Binder | binding result (BioPure recombinant Aβ42 [1]) | binding result (BioPure recombinant Aβ42 [2])
Mouse synaptophysin (endogenous, from brain synaptosomes or cultured neurons) (other, UniProt Q62277 1-314, looked up, Endogenous protein detected by western blot; also called SYP; Syp) MLLLADMDVVNQLVAGGQFRVVKEPLGFVKVLQWVFAIFAFATCGSYTGELRLSVECANKTESALNIEVEFEYPFRLHQVYFDAPSCVKGGTTKIFLVGDYSSSAEFFVTVAVFAFLYSMGALATYIFLQNKYRENNKGPMMDFLATAVFAFMWLVSSSAWAKGLSDVKMATDPENIIKEMPMCRQTGNTCKELRDPVTSGLNTSVVFGFLNLVLWVGNLWFVFKETGWAAPFMRAPPGAPEKQPAPGDAYGDAGYGQGPGGYGPQDSYGPQGGYQPDYGQPASGGGGGYGPQGDYGQQGYGQQGAPTSFSNQM | binds | 
Mouse MAP2 (endogenous, from brain synaptosomes) (other, UniProt P20357 1-1828, looked up, Loading control; also called loading control) MADERKDEGKAPHWTSASLTEAAAHPHSPEMKDQGGAGEGLSRNANGFPYREEEEGAFGEHRSQGTYSDTKENGINGELTSADRETAEEVSARIVQVVTAEAVAVLKGEQEKEAQHKDQPAALPLAAEETANLPPSPPPSPASEQTATVEEDLLTASKMEFPEQEKFPSSFAEPLDKGEMEFKMPSKPGEDFEHAALVPDTSKTPQDKKDLQGMEGEKLPPVPFAQTFGTNLEDRKQSTEPSIVMPSIGLSAEPPAPKEPKDWFIEMPTESKKDEWGLAAPISPGPLTPMREKDVLEDIPRWEGKQFDSPMPSPFHGGSFTLPLDTMKNERVSEGPRPFAPVFFQSDDKVSLQDPSALATSKESSKDEEPLKDKADKVADVSISEVTTLLGNVHSPVVEGYVGENISGEVKVTTDQEKKETSAPSVQEPTLTETEPQTKLDEKSTVSIEEAVAKKEESFKLRDDKTGVIQTSTEQSFSKEDQKGQEHTIDELKQDSFPISLEQAVTDAAMTSKTLGKVTSEPEAVSERREIQGLFEEKTADKNKLEGAGSATIAEVEMPFYEDKSGMSKYFETSALKEDMTRSTELGSDYYELSDSRGSAQESLDTISPKNQHDEKELQAKASQPSPPAQEAGYSTLAQSYTPDHPSELPEEPSSPQERMFTIDPKVYGEKRDLHSKNKDDLTLSRSLGLGGRSAIEQRSMSINLPMSCLDSIALGFNFGRGHDLSPLASDILTNTSGSMDEGDDYLPPTTPAVEKMPCFPIESKEEEDKAEQAKVTGGQTIQVETSSESPFPAKEYYKNGTVMAPDLPEMLDLAGTRSRLASVSADAEVARRKSVPSEAMLAESSTSLPPVADESPVTVKPDSQLEDMGYCVFNKYTVPLPSPVQDSENLSGESGSFYEGTDDKVRRDLATDLSLIEVKLAAAGRVKDEFTAEKEASPPTSADKSRLSREFDHDRKANDKLDTVLEKSEEHIDSKEHAKESEEMGGKVELFGLGITYDQASTKELITTKDTSPEKTEKGLSSVPEVAEVEPTTKADQGLDFAATKAEPSQLDIKVSDFGQMASGMNVDAGKAIELKFEVAQELTLSSEAPQEADSFMGVESGHIKEGGKVNETEVKEKVTKPDLVHQEAVDKEESYESSGEHESLTMESLKPDEGKKETSPETSLIQDEVALKLSVEIPCPPPVSEADLSTDEKGEVQMEFIQLPKEESTETPDIPAIPSDVTQPQPEAIVSEPAEVPSEEEEIEAGGEYDKLLFRSDTLQISDLLVSESREEFVETCPGELKGVVESVVTIEDDFITVVQTTTDEGESGSHSVRFAAPAQPEEERRPRPHDEELEIEMAAEAQAEPKDGSPDAPATPEKEEVAFSEYKTETYDDYKDETTIDDSIMDADSLWVDTQDDDRSILTEQLETIPKEERAEKDARRPSLEKHRKEKPFKTGRGRISTPERKVAKKEPSTVSRDEVRRKKAVYKKAELAKKSEVQAHSPSRKLILKPAIKYTRPTHLSCVKRKTTAASGDLAQAPGAFKQAKDKVTDGISKSPEKRSSLPRPSSILPPRRGVSGDREENSFSLNSSISSARRTTRSEPIRRAGKSGTSTPTTPGSTAITPGTPPSYSSRTPGTPGTPSYPRTPGTPKSGILVPSEKKVAIIRTPPKSPATPKQLRLINQPLPDLKNVKSKIGSTDNIKYQPKGGQVQIVTKKIDLSHVTSKCGSLKNIRHRPGGGRVKIESVKLDFKEKAQAKVGSLDNAHHVPGGGNVKIDSQKLNFREHAKARVDHGAEIITQSPSRSSVASPRRLSNVSSSGSINLLESPQLATLAEDVTAALAKQGL |  | no binding
Mouse synaptogyrin1 (endogenous, from brain synaptosomes) (other, UniProt O55100 1-234, looked up, SYP paralog, 22% identity as printed; also called SNG1; synaptogyrinl) MEGGAYGAGKAGGAFDPYTLVRQPHTILRVVSWVFSIVVFGSIVNEGYLNNPEEEEEFCIYNRNPNACSYGVTVGVLAFLTCLLYLALDVYFPQISSVKDRKKAVLSDIGVSAFWAFFWFVGFCFLANQWQVSKPKDNPLNEGTDAARAAIAFSFFSIFTWAGQAVLAFQRYQIGADSALFSQDYMDPSQDSSMPYAPYVEPSAGSDPAGMGGTYQHPANAFDAEPQGYQSQGY |  | no binding
Mouse synaptoporin (endogenous, from brain synaptosomes) (other, UniProt Q8BGN8 1-265, looked up, SYP paralog, 62% identity as printed; also called SYNPR) MCMVIFAPLFAMFAFATCGGYSGGLRLSVDCVNKTESNLSIDIAFAYPFRLQQVTFEVPTCEGKEQQKLALVGDSSSSAEFFVTVAVFAFLYSLAATVVYIFFQNKYRENNRGPLIDFIVTVVFSFLWLVGSSAWAKGLSDVKVATDPKEVLLLMSACKQPSNKCMAVHSPVMSSLNTSVVFGFLNFILWAGNIWFVFKETGWHSSGQRYLSDPMEKHSSSYNQGRYNQESYGSSGGYSQQANLGPTSDEFGQQPSGPTSFNNQI |  | no binding

Source: patent US20170183388A1 (REGENTS OF THE UNIVERSITY OF COLORADO A BODY CORPORATE, published 2017)
